Assay results: the supplement of paper PMC9112550, “Optimization of the antimicrobial peptide Bac7 by deep mutational scanning” (BMC Biology, 2022)

System: Escherichia coli TOP10
Experiment: shrunken log2 fold change of peptide-encoding DNA abundance (4.5 h post-induction vs induction); higher = less antimicrobial activity (less host growth inhibition)
Details: time post-induction: 4.5 h; library: site-saturation at positions 5, 18, 19, 20
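Note: peptides expressed intracellularly from a pBAD plasmid library in pooled LB shake-flask culture, induced with 0.3% L-arabinose, DNA abundance read by NGS, three biological replicates, DESeq2 with apeglm shrinkage.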

Row | Sequence | shrunken log2 fold change
1 | RRIRCRPPRLPRPRPRPIMPPRP | -0.11
2 | RRIRCRPPRLPRPRPRPINIPRP | -0.702
3 | RRIRCRPPRLPRPRPRPIRLPRP | -0.0542
4 | RRIRCRPPRLPRPRPRPISSPRP | -0.0694
5 | RRIRCRPPRLPRPRPRPITIPRP | -0.261
6 | RRIRCRPPRLPRPRPRPITWPRP | -0.189
7 | RRIRCRPPRLPRPRPRPIVFPRP | -0.31
8 | RRIRCRPPRLPRPRPRPIWSPRP | 0.162
9 | RRIRCRPPRLPRPRPRPIYTPRP | -0.234
10 | RRIRCRPPRLPRPRPRPKAFPRP | -0.0921
11 | RRIRCRPPRLPRPRPRPKAIPRP | -0.0563
12 | RRIRCRPPRLPRPRPRPKAVPRP | 0.564
13 | RRIRCRPPRLPRPRPRPKCAPRP | 0.121
14 | RRIRCRPPRLPRPRPRPKCNPRP | -0.201
15 | RRIRCRPPRLPRPRPRPKCVPRP | -0.0957
16 | RRIRCRPPRLPRPRPRPKDCPRP | -0.0763
17 | RRIRCRPPRLPRPRPRPKDGPRP | 0.408
18 | RRIRCRPPRLPRPRPRPKEIPRP | 0.0368
19 | RRIRCRPPRLPRPRPRPKEVPRP | -0.289
20 | RRIRCRPPRLPRPRPRPKGDPRP | -0.0659
21 | RRIRCRPPRLPRPRPRPKGSPRP | 0.189
22 | RRIRCRPPRLPRPRPRPKGYPRP | -0.0908
23 | RRIRCRPPRLPRPRPRPKHAPRP | 0.302
24 | RRIRCRPPRLPRPRPRPKHHPRP | -0.32
25 | RRIRCRPPRLPRPRPRPKIRPRP | 0.0994

Row | Sequence | shrunken log2 fold change
26 | RRIRCRPPRLPRPRPRPKLLPRP | -0.172
27 | RRIRCRPPRLPRPRPRPKMIPRP | -0.727
28 | RRIRCRPPRLPRPRPRPKPDPRP | 0.296
29 | RRIRCRPPRLPRPRPRPKPEPRP | 0.377
30 | RRIRCRPPRLPRPRPRPKPLPRP | 0.12
31 | RRIRCRPPRLPRPRPRPKQRPRP | 0.222
32 | RRIRCRPPRLPRPRPRPKQSPRP | 0.107
33 | RRIRCRPPRLPRPRPRPKSRPRP | 0.0706
34 | RRIRCRPPRLPRPRPRPKTAPRP | 0.39
35 | RRIRCRPPRLPRPRPRPKTDPRP | -0.0884
36 | RRIRCRPPRLPRPRPRPKTIPRP | -0.141
37 | RRIRCRPPRLPRPRPRPKTPPRP | 0.827
38 | RRIRCRPPRLPRPRPRPKVEPRP | 0.345
39 | RRIRCRPPRLPRPRPRPKVNPRP | -0.542
40 | RRIRCRPPRLPRPRPRPKWVPRP | 0.0707
41 | RRIRCRPPRLPRPRPRPKYGPRP | 0.0136
42 | RRIRCRPPRLPRPRPRPKYHPRP | -0.743
43 | RRIRCRPPRLPRPRPRPLCCPRP | -0.237
44 | RRIRCRPPRLPRPRPRPLCWPRP | 0.132
45 | RRIRCRPPRLPRPRPRPLDCPRP | 0.0147
46 | RRIRCRPPRLPRPRPRPLDEPRP | 0.151
47 | RRIRCRPPRLPRPRPRPLDFPRP | -0.175
48 | RRIRCRPPRLPRPRPRPLDNPRP | -0.235
49 | RRIRCRPPRLPRPRPRPLERPRP | -0.199
50 | RRIRCRPPRLPRPRPRPLFLPRP | -0.601

Row | Sequence | shrunken log2 fold change
51 | RRIRCRPPRLPRPRPRPLGKPRP | -0.101
52 | RRIRCRPPRLPRPRPRPLHHPRP | -0.469
53 | RRIRCRPPRLPRPRPRPLHKPRP | -0.0345
54 | RRIRCRPPRLPRPRPRPLIKPRP | -0.311
55 | RRIRCRPPRLPRPRPRPLLYPRP | -0.572
56 | RRIRCRPPRLPRPRPRPLMQPRP | 0.0849
57 | RRIRCRPPRLPRPRPRPLNEPRP | -0.0566
58 | RRIRCRPPRLPRPRPRPLNWPRP | 0.0486
59 | RRIRCRPPRLPRPRPRPLNYPRP | 0.101
60 | RRIRCRPPRLPRPRPRPLPPPRP | 0.733
61 | RRIRCRPPRLPRPRPRPLPTPRP | 0.63
62 | RRIRCRPPRLPRPRPRPLQMPRP | -0.182
63 | RRIRCRPPRLPRPRPRPLQRPRP | 0.203
64 | RRIRCRPPRLPRPRPRPLSPPRP | 0.107
65 | RRIRCRPPRLPRPRPRPLTTPRP | 0.729
66 | RRIRCRPPRLPRPRPRPLVYPRP | -0.548
67 | RRIRCRPPRLPRPRPRPLWVPRP | -0.1
68 | RRIRCRPPRLPRPRPRPLYPPRP | -0.729
69 | RRIRCRPPRLPRPRPRPMEKPRP | 0.0833
70 | RRIRCRPPRLPRPRPRPMFAPRP | 0.186
71 | RRIRCRPPRLPRPRPRPMFQPRP | -0.151
72 | RRIRCRPPRLPRPRPRPMGMPRP | -0.184
73 | RRIRCRPPRLPRPRPRPMGTPRP | -0.159
74 | RRIRCRPPRLPRPRPRPMGVPRP | -0.152
75 | RRIRCRPPRLPRPRPRPMGYPRP | -0.0984

Row | Sequence | shrunken log2 fold change
76 | RRIRCRPPRLPRPRPRPMHMPRP | -0.14
77 | RRIRCRPPRLPRPRPRPMLEPRP | 0.293
78 | RRIRCRPPRLPRPRPRPMLRPRP | 0.184
79 | RRIRCRPPRLPRPRPRPMNIPRP | -0.693
80 | RRIRCRPPRLPRPRPRPMNKPRP | -0.32
81 | RRIRCRPPRLPRPRPRPMPGPRP | 0.0112
82 | RRIRCRPPRLPRPRPRPMQFPRP | -0.113
83 | RRIRCRPPRLPRPRPRPMQMPRP | 0.0279
84 | RRIRCRPPRLPRPRPRPMRCPRP | 0.404
85 | RRIRCRPPRLPRPRPRPMRHPRP | -0.0878
86 | RRIRCRPPRLPRPRPRPMRWPRP | 0.325
87 | RRIRCRPPRLPRPRPRPMSAPRP | -0.0757
88 | RRIRCRPPRLPRPRPRPMTGPRP | -0.103
89 | RRIRCRPPRLPRPRPRPMTLPRP | -0.135
90 | RRIRCRPPRLPRPRPRPMWCPRP | 0.148
91 | RRIRCRPPRLPRPRPRPNAWPRP | -0.247
92 | RRIRCRPPRLPRPRPRPNCHPRP | -0.314
93 | RRIRCRPPRLPRPRPRPNDNPRP | -0.692
94 | RRIRCRPPRLPRPRPRPNFGPRP | -0.0314
95 | RRIRCRPPRLPRPRPRPNFRPRP | 0.0821
96 | RRIRCRPPRLPRPRPRPNGIPRP | -0.117
97 | RRIRCRPPRLPRPRPRPNGKPRP | -0.8
98 | RRIRCRPPRLPRPRPRPNHNPRP | -0.975
99 | RRIRCRPPRLPRPRPRPNIIPRP | 0.796
100 | RRIRCRPPRLPRPRPRPNKPPRP | 0.0511

Row | Sequence | shrunken log2 fold change
101 | RRIRCRPPRLPRPRPRPNNQPRP | -0.75
102 | RRIRCRPPRLPRPRPRPNNWPRP | -0.362
103 | RRIRCRPPRLPRPRPRPNRAPRP | 0.00805
104 | RRIRCRPPRLPRPRPRPNTQPRP | -0.0903
105 | RRIRCRPPRLPRPRPRPNVDPRP | -0.215
106 | RRIRCRPPRLPRPRPRPNVFPRP | -0.24
107 | RRIRCRPPRLPRPRPRPNVGPRP | 0.0143
108 | RRIRCRPPRLPRPRPRPNVQPRP | -0.0319
109 | RRIRCRPPRLPRPRPRPNWFPRP | -0.201
110 | RRIRCRPPRLPRPRPRPNWLPRP | -0.115
111 | RRIRCRPPRLPRPRPRPNWMPRP | -0.805
112 | RRIRCRPPRLPRPRPRPNWRPRP | 0.437
113 | RRIRCRPPRLPRPRPRPPELPRP | 0.643
114 | RRIRCRPPRLPRPRPRPPHRPRP | 0.854
115 | RRIRCRPPRLPRPRPRPPHYPRP | 0.638
116 | RRIRCRPPRLPRPRPRPPLCPRP | 0.674
117 | RRIRCRPPRLPRPRPRPPNAPRP | 0.262
118 | RRIRCRPPRLPRPRPRPPRSPRP | 0.993
119 | RRIRCRPPRLPRPRPRPPSMPRP | 0.0264
120 | RRIRCRPPRLPRPRPRPPTTPRP | 0.353
121 | RRIRCRPPRLPRPRPRPPVTPRP | 0.0706
122 | RRIRCRPPRLPRPRPRPPWYPRP | -0.0833
123 | RRIRCRPPRLPRPRPRPPYQPRP | -0.138
124 | RRIRCRPPRLPRPRPRPQADPRP | 0.0688
125 | RRIRCRPPRLPRPRPRPQCCPRP | 0.254

Row | Sequence | shrunken log2 fold change
126 | RRIRCRPPRLPRPRPRPQCLPRP | -0.442
127 | RRIRCRPPRLPRPRPRPQDQPRP | -0.101
128 | RRIRCRPPRLPRPRPRPQDRPRP | -0.175
129 | RRIRCRPPRLPRPRPRPQEKPRP | 0.0587
130 | RRIRCRPPRLPRPRPRPQEWPRP | 0.00898
131 | RRIRCRPPRLPRPRPRPQFHPRP | -0.635
132 | RRIRCRPPRLPRPRPRPQFNPRP | -0.98
133 | RRIRCRPPRLPRPRPRPQGCPRP | -0.0977
134 | RRIRCRPPRLPRPRPRPQGDPRP | 0.0138
135 | RRIRCRPPRLPRPRPRPQGPPRP | 0.353
136 | RRIRCRPPRLPRPRPRPQHQPRP | -0.145
137 | RRIRCRPPRLPRPRPRPQIGPRP | -0.00649
138 | RRIRCRPPRLPRPRPRPQKFPRP | -0.638
139 | RRIRCRPPRLPRPRPRPQLDPRP | -0.142
140 | RRIRCRPPRLPRPRPRPQMFPRP | -0.155
141 | RRIRCRPPRLPRPRPRPQMNPRP | -0.416
142 | RRIRCRPPRLPRPRPRPQNLPRP | -0.49
143 | RRIRCRPPRLPRPRPRPQNQPRP | -0.00207
144 | RRIRCRPPRLPRPRPRPQPCPRP | 0.0038
145 | RRIRCRPPRLPRPRPRPQPNPRP | 0.0742
146 | RRIRCRPPRLPRPRPRPQQEPRP | -0.051
147 | RRIRCRPPRLPRPRPRPQQIPRP | -0.168
148 | RRIRCRPPRLPRPRPRPQRHPRP | -0.173
149 | RRIRCRPPRLPRPRPRPQSGPRP | -0.142
150 | RRIRCRPPRLPRPRPRPQSKPRP | -0.448
